Results on three molecules are retold here after paper PMC12554370, “MdMAPK6-mediated phosphorylation of MdWRKY9 regulates apple fruit ripening through interaction with MdERF5L”.

Series [1] addresses MdWRKY9 (Malus domestica, UniProt D9ZJG3 1-520). The series can be described thus: EMSA; LightShift Chemiluminescent EMSA kit (Thermo), per manufacturer's protocol; buffer, salt, pH and temperature not stated. Conditions: protein: recombinant; tags: GST (pGEX-4T-1) or His (pET-32a); label: biotin (hot probe); blunt. For orientation: A gel shift assay detects complexes by their altered migration in electrophoresis.

The target of series [2] is T1, MdERF5L (Malus domestica, UniProt A0A498JN73 1-332). As to the kind of experiment: EMSA; cold probe competes; LightShift Chemiluminescent EMSA kit (Thermo), per manufacturer's protocol; buffer, salt, pH and temperature not stated. Conditions: protein: recombinant; tags: GST (pGEX-4T-1); label: biotin (hot probe); blunt.
T1 sequence (A0A498JN73 entry or part of it): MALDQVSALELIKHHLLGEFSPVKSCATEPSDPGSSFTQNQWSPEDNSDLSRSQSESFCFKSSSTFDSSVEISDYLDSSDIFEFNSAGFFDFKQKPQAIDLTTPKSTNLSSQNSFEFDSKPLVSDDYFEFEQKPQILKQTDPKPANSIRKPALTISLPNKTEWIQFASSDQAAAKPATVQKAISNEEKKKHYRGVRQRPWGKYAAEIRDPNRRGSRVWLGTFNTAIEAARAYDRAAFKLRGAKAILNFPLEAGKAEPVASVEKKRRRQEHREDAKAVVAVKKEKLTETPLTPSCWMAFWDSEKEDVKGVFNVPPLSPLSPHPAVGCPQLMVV
Series [3] deals with T1, MdERF5L. As to the kind of experiment: EMSA; mutations disrupted binding; LightShift Chemiluminescent EMSA kit (Thermo), per manufacturer's protocol; buffer, salt, pH and temperature not stated. The following applies: protein: recombinant; tags: GST (pGEX-4T-1); blunt.

Chain of MdWRKY9 (D9ZJG3 entry or part of it): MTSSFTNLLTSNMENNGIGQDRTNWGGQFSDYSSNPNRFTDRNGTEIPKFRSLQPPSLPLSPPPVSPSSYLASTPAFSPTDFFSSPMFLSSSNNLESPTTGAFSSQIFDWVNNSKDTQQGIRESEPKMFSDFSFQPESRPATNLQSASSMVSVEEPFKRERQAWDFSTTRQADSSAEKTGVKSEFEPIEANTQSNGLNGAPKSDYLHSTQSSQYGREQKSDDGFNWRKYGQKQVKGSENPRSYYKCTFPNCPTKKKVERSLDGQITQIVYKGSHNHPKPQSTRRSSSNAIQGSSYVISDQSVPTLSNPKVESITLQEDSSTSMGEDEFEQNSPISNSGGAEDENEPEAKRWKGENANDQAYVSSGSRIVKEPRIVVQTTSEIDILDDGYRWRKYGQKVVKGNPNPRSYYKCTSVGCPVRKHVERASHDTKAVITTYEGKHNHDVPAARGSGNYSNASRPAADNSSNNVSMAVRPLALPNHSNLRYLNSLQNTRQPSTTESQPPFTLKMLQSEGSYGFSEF

B1: MdERF5L-W-box probe (dsDNA)
DNA 1: AATTTGTATATCGTTTTCTGGGTCAATGATACGTTTTTTTATATTA
DNA 2: TAATATAAAAAAACGTATCATTGACCCAGAAAACGATATACAAATT
B1: in series [1], the binding result was “binds”.

B2: MdACS1-DRE probe (dsDNA)
DNA 1: AAAATAGAGGAGAAAAATGGCCGACAAAATTTGTTGTGGCTACTA
DNA 2: TAGTAGCCACAACAAATTTTGTCGGCCATTTTTCTCCTCTATTTT
On to B2, for which, in series [2], the binding result is on record as “binds”.

B3: MdACS1-DRE mutant probe (dsDNA)
DNA 1: AAAATAGAGGAGAAAAATGGTCTAGAAAATTTGTTGTGGCTACTA
DNA 2: TAGTAGCCACAACAAATTTTCTAGACCATTTTTCTCCTCTATTTT
For the molecule B3, in series [3], the binding result is reported as “no binding”.
